Laboratory results published in article PMC11602913 (EJNMMI Radiopharmacy and Chemistry, 2024).

Tests used:
[1] = DOTA and its derivatives; ref Mirzadeh et al. [1993]; Bauer et al. [2024]; cited from earlier work
Source text: (§1) The well-known chelator DOTA and its derivatives tend to lose up to 40% of ^212Bi from its ^212Pb-complexes due to β^–-conversion accompanied by 38% conversion electrons and a cascade of Auger-Meitner electrons (Mirzadeh et al. [1993]; Bauer et al. [2024]). […] PSC-PEG2-TOC (VMT-α-NET) is a somatostatin receptor subtype 2 (SSTR2) targeting peptide of very high stability for the treatment of neuroendocrine tumours ...

[2] = test system: somatostatin receptor subtype 2 (SSTR2); details: ref Li et al. [2023]; cited from earlier work
Source text: as §1

[3] = Stability of the 212Pb-labelled product at room temperature (radio-TLC); format: physicochemical
Procedure: Since the radiolysis and alpha decay is often discussed as fatal for the radiolabelled molecules in solution (Roscher et al. [2020]), the stability of the ^212Pb-labelled product was tested at room temperature. A TLC sample was taken from the product vial 4 h after radiosynthesis. Right after development of the TLC strip, > 20% of activity was found as unbound activity at the front of the TLC (Fig. S3). […] The activity at the front of the TLC was mainly due to free ^208Tl, which is reasonable due to 36% direct alpha decay from ^212Bi.
RCP was monitored by thin-layer chromatography (TLC) on iTLC-SG plates (Agilent, Santa Clara, California, USA). Measurement of the radionuclidic purity (RNP) and evaluation of the radio-TLC and was performed with a thin-layer scanner (MiniScanPRO + , Eckert&Ziegler Eurotope GmbH, Berlin, Germany) equipped with a Model 43–2 alpha detector ZnS(Ag) scintillator (Ludlum Measurements, Sweetwater, Texas, USA) and a built-in multi-channel analyzer for gamma spectroscopy.

[4] = test system: neuroendocrine tumours (NET); experiment: Individual patient application of the 212Pb-labelled peptide; format: in vivo, human; details: patients, doses of 1–1.5 MBq/kg
Procedure: The precursor concentration (0.1 µg/MBq) results in a maximum mass of 50 µg (31.7 nmol) for 500 MBq ^212Pb-labelled peptide, which is half to the mass used for routine ^177Lu-preparations with 5000 MBq (Brogsitter et al. [2017]). At this concentration, any ^212Bi generated during the reaction time by free ^212Pb is rebound by the precursor (Li et al. [2023]). Typically, doses of 1–1.5 MBq/kg were administered per patient. […] The detailed results of patient treatments will be discussed in a further publication.

Compound: O=C(O)CN1CCN(CC(=O)O)CCN(CC(=O)O)CCN(CC(=O)O)CC1 [DOTA]
- loss of 212Bi from 212Pb-complexes due to β−-conversion [1]: up to 40%

Compound: PSC-PEG2-TOC [VMT-α-NET]
- renal excretion [2]: fast renal excretion
- tumour accumulation [2]: rapid tumour accumulation
- tumour retention [2]: high tumour retention

Compound: [^212Pb]Pb-PSC-PEG2-TOC [[^212Pb]Pb-VMT-α-NET]
- free 212Bi together with free 208Tl daughter nuclides observed in the TLCs ([3]; 4 h after radiosynthesis, radio-TLC): up to 20%
- spot for unbound radionuclides on TLC ([3]; product vial at room temperature, TLC sample taken 4 h after radiosynthesis, measured 10 h after development of the TLC strip, iTLC-SG, citrate eluant (Fig. S4)): below 5%
- unbound activity at the front of the TLC ([3]; product vial at room temperature, TLC sample taken 4 h after radiosynthesis, measured right after development of the TLC strip, iTLC-SG, citrate eluant (Fig. S3)): > 20%
- radiolysis of the 212Pb-labelled product ([3]; room temperature, within 4 h after radiosynthesis, radio-TLC): no significant radiolysis
- disease response in individual patient application [4]: stable disease for more than six months
